# Non-standard residues stand in square brackets, D forms with d. No end group written: not given here. Nle = CCCC[C@H](N)C(=O)O
# Assays:
# [1] = target: T1, c-Met receptor on mouse liver plasma membranes (mouse, UniProt P16056 25-1379); test: competition with 50 pM ^125I-HGF for binding to mouse liver plasma membranes; mean ±SEM, n=3
# T1 construct: whole, on cells; Membrane preparation from mouse liver
# Procedure: Mouse liver plasma membranes were incubated with […] ¹²⁵I-HGF and the indicated concentrations of HGF or Norleual. Results are presented as percent of specific ¹²⁵I-HGF binding and error bars indicate±standard error of mean (SEM). Competition experiments included quadruplicate data points and each experiment was repeated in triplicate.
# (§1) ¹²⁵I-HGF binding assay. Mouse liver was homogenized in hypotonic buffer fortified with 0.1% bovine serum albumin as described by Hanesworth et al. (1993). 600 μg of membrane protein was incubated with 50 pM ¹²⁵I-HGF with various concentrations of HGF or Norleual in a total volume of 100 μl phosphate-buffered saline (PBS) fortified with 0.1% BSA. Binding occurred for one hour on ice. Membranes were pelleted by centrifugation and washed twice with incubation buffer. Radioactivity was counted with a gamma counter (Isomedic 10/880, ICN, Cost Mesa, Calif., USA). Specific binding was calculated and normalized to control counts. Competition fits by Prism software (GraphicPad, San Diego, Calif.) were performed according to the manufacturer's instructions.
# Materials and methods were as described in Example 1. In separate tests of unlabeled competitors, both Norleual and HGF competed with ¹²⁵I-HGF for high affinity binding to mouse liver plasma membranes (FIGS. 2A, 2B). […]
# [2] = target: T2, c-Met receptor on human cells (HEK293 cells and membranes, HUVEC) (human, UniProt P08581 25-1390); test: unlabeled Norleual against ^125I-Norleual on HEK293 membranes; two-site competition fit, low-affinity site
# T2 construct: Endogenous receptor of human embryonic kidney HEK293 cells, HEK293 membranes and HUVEC; also called hepatocyte growth factor receptor; HGF-R
# T2 sequence (P08581 other isoform, or with tags, fused parts or gaps limits assumed): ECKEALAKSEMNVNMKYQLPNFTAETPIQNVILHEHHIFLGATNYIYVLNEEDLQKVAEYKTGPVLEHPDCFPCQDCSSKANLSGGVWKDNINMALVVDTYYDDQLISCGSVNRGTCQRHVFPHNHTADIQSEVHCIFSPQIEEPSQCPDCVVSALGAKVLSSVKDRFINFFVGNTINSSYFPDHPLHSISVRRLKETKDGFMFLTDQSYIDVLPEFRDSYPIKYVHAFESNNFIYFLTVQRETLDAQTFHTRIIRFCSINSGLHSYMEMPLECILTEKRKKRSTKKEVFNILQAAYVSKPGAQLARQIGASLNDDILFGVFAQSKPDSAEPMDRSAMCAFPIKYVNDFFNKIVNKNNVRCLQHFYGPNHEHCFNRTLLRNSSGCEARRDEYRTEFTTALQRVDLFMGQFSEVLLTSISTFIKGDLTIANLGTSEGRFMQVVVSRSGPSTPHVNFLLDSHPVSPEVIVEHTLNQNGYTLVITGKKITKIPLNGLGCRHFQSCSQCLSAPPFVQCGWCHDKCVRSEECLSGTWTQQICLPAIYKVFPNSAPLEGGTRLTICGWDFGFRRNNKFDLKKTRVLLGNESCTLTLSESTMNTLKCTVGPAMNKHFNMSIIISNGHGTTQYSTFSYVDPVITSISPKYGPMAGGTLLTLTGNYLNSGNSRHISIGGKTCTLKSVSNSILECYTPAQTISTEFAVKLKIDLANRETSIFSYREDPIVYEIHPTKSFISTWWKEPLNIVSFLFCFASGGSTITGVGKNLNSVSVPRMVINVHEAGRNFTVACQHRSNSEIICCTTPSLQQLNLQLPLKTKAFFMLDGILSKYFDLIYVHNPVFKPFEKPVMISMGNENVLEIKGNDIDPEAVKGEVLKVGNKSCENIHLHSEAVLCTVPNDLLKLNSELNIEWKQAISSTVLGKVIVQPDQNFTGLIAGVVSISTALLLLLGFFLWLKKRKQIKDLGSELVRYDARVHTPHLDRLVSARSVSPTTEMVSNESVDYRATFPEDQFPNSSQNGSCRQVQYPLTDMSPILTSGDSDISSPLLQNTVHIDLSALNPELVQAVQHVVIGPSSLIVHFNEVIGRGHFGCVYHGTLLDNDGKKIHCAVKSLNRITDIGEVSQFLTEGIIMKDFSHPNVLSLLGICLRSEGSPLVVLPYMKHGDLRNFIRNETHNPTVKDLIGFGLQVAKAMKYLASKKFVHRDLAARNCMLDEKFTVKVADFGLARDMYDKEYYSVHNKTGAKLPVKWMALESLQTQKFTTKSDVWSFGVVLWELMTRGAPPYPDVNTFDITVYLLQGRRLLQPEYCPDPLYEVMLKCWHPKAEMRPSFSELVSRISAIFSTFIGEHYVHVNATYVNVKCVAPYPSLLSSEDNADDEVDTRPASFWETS
# Procedure: (§2) FIG. 3C: ¹²⁵I-Norleual was bound to HEK membranes in the presence or absence of 1.5 nM HGF (n=8) or 1 μM Norleual (n=6). Total binding is reported as percent control (n=10), (*p<0.001). Error bars indicate±SD. […] Error bars indicate SD and data points were performed in duplicate.
# (§3) ¹²⁵I-Norleual binding assay. HEK293 cells were grown to confluency in DMEM fortified with 10% FBS. Media was aspirated and cells were washed twice with ice-cold PBS. Cells were lysed with hypotonic buffer and homogenized as described by Zhang et al. (1999, J. Pharmacol. Exp. Ther. 289: 1075-1083; 2003 J. Cell Biochem. 88: 408-417). 450 μg of membrane protein was incubated with 1.5 nM ¹²⁵I-Norleual with or without Norleual or HGF in a total volume of 250 μl PBS, 0.1% BSA. Tubes were spun and binding was carried out for 60 minutes at RT. Bound and free ligands were separated by vacuum filtration using (Brandel Cell Harvester, Schleicher & Schull, Keene, N.H., USA) 32 glass filters. Radioactivity retained by the filters was measured using a gamma counter. […] Data analysis was preformed using Prism software (GraphicPad) per the supplier's recommendations.
# [3] = target: T2, c-Met receptor on human cells (HEK293 …); test: unlabeled Norleual against ^125I-Norleual on HEK293 membranes; two-site competition fit, high-affinity site
# Procedure: as §2, §3
# [4] = target: T1, c-Met receptor on mouse liver plasma …; test: competition with ^125I-HGF at various concentrations of COMPOUND 2 (mouse liver membranes)
# Procedure: as §1
# Briefly, COMPOUND 2 was iodinated with […] and bound and cross-linked to HEK cell membranes with or without 1 nM COMPOUND 2 or 1 nM hepatocyte growth factor. Following solubilization and separation of free label by molecular sieving, total radioactive counts were determined. The ability of the ligand COMPOUND 2 to compete with hepatocyte growth factor binding to the c-Met receptor was also tested using mouse liver plasma membranes and intact HEK293 cells. […] Membranes were pelleted and unbound label was removed by washing, and total radioactive counts were determined. […]
# T1 sequence (P16056 25-1379): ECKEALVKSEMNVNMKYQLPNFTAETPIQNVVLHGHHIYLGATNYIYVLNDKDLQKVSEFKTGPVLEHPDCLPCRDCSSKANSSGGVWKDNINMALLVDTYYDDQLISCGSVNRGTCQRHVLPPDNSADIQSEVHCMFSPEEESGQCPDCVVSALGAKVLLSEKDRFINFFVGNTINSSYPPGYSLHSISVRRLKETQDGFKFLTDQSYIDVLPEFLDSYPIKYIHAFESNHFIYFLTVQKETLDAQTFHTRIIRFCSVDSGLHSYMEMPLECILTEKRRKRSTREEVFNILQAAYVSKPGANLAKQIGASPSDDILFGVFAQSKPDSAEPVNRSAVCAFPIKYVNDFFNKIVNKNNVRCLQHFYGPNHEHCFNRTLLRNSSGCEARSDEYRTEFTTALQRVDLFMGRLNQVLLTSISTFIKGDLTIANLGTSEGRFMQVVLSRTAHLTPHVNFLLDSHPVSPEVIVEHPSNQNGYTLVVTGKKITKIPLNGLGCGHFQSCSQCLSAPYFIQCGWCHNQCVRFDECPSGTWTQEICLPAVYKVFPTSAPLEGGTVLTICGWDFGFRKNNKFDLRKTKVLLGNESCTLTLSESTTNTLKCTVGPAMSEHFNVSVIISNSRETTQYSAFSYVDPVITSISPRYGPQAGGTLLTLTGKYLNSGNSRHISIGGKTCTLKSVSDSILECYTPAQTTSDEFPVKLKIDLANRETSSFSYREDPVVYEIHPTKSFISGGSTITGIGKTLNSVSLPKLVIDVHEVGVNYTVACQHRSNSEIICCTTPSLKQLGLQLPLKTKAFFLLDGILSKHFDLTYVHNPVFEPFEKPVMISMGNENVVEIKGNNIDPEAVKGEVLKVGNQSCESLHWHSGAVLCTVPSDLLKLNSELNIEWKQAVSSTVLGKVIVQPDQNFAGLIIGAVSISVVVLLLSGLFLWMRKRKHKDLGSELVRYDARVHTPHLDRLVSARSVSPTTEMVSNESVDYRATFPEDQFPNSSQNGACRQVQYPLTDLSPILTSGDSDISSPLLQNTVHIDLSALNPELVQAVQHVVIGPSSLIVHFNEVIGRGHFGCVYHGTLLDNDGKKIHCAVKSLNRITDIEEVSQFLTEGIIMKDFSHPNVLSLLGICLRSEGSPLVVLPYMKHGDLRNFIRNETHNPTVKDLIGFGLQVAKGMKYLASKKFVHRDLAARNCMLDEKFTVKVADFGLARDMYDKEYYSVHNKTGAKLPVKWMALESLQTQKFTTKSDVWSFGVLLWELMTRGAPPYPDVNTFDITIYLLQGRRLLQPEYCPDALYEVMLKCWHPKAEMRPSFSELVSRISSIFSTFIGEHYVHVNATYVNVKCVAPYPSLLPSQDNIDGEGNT
binder,measurement,setting,value
"[Nle]YLHPF (not fully specified; printed as Nle-Tyr-Leu-ψ-(CH2-NH2)-His-Pro-Phe; also: reduced peptide bond ψ(CH2-NH) between Leu3 and His4, Synthesized by Syngene and purified by reverse phase HPLC; Peptidomimetic hexapeptide; also called Compound 2; COMPOUND 2) [Norleual (Nle-Tyr-Leu-ψ-(CH2-NH2)-His-Pro-Phe)]",IC50,[1],3.1 pM
same,IC50,[2],7400 pM
same,IC50,[3],48 pM
same,Kd,[4],~3 pM

# — patent publication US20080293634A1 (WASHINGTON STATE UNIVERSITY RESEARCH FOUNDATION, published 2008)
